Results as given in patent US20240409645A1 (DUALYX, published 2024).

T1: human IL-2Rβ (human, UniProt P14784 27-240, limits assumed)
T1 construct: Recombinant protein, coated (ELISA) or immobilised on CM5 (SPR); also called hu IL-2R; interleukin 2 receptor β-chain
T1 sequence: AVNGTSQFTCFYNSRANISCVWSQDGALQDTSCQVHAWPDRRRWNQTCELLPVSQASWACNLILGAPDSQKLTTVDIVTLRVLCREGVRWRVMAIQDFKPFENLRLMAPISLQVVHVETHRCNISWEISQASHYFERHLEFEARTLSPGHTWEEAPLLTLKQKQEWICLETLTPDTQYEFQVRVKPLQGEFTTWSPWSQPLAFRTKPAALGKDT

T2: human IL-2Rγ (common cytokine receptor γ-chain) (human, UniProt P31785 23-262, limits assumed)
T2 construct: Recombinant protein coated on the plate or immobilised on a CM5 chip; also called hu IL-2R; CD132
T2 sequence: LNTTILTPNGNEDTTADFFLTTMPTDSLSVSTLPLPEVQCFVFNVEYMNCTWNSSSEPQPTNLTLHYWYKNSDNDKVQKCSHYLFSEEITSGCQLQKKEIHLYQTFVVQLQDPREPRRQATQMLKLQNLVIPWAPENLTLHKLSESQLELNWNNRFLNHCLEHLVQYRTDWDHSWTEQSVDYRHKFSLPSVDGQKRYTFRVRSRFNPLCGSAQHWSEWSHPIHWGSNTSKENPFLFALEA


Key:
[1] = molecular target: T1, human IL-2Rβ; test: SPR (Biacore), P.E. off-rate ranking
[2] = molecular target: T1, human IL-2Rβ; test: P.E. binding ELISA on coated protein
In short: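 Plates were coated overnight at 4° C with human or mouse IL-2R chain protein, and free sites blocked for 1 hour in 4% Marvel in PBS. Periplasmic extracts diluted 1:5 in 1% Marvel/PBS then bound for 1 hour, with specificity assessed from 450 nm absorbance relative to negative controls.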

[3] = molecular target: T2, human IL-2Rγ (common cytokine receptor …); test: SPR off-rate ranking, periplasmic extract on immobilised protein
Description: SPR was performed to determine dissociation rates using Biacore 3000 instrument (GE Healthcare). Briefly, human and mouse IL-2R proteins were immobilized on carboxylmethyl dextran sensor chip (CM5) at approximately 2500 RUs using amine coupling in acetate buffer (GE Healthcare). The VHH-containing P.E. were loaded with a flow rate of 30 uL/min and the off-rates were measured over a 120s period.

[4] = molecular target: T2, human IL-2Rγ (common cytokine receptor …); test: PE binding ELISA, periplasmic extract on coated protein
Description: In a binding ELISA, human or mouse IL-2Rα, IL-2Rβ and IL-2Rγ proteins were coated directly on maxisorp microtiter plates overnight at 4° C. Free binding sites were blocked using 4% Marvel in PBS for 1 hour. Next, 1:5 dilution of P.E. in 1% Marvel/PBS were added to wells and incubated for 1 hour. […] Binding specificity was determined based on O.D. at 450 nm values compared to negative controls.

Row | koff [1] [s⁻¹] | P.E. binding ELISA OD [2] [OD450 nm] | koff [3] [s⁻¹] | OD (PE binding ELISA) [4] [OD450 nm] | Binder
1 | 0.000143 | 0.557 |  |  | FJ1427 P035MP06G01 (VHH, soluble VHH in periplasmic extract; also called clone nr) VHH: EVQLVESGGGLVQAGDSLRLSCVVSGRGFSTYTMGWFRQAPGKEREFVAAITWSTGRTSYADSVKGRFTISRENAENTVYLQMNSLELEDTAVYYCATDQVLWTTRPRDMRYWGQGTQVTVSF
2 |  |  | 0.00131 | 0.362 | 27-MP04G01 (VHH, VHH in periplasmic extract; also called FJ1427_P035MP04G01; clone nr) VHH: QVQLVESGGGLVQAGGSLTLSCAAPGRTFGTDVVGWFRQAPGKEREFVASISRSGDGIYYDDSVKGRFTISRNNAWNTVNLQMNSLKVEDTAVYYCAAGDGWSTYDYWGQGTQVTVSS
3 |  |  | 0.00124 | 0.264 | FJ1427_P035MP04C01 (VHH, VHH in periplasmic extract; also called clone nr) VHH: QVQLVESGGGLVQAGGSLTLSCAASGRTFSTDVVGWFRQAPGKEREFVASISRSGDGIYYDDSVKGRFTISRNNAWNTVNLQMNNLKVEDTAVYYCAAGDGWSTYDYWGQGTQVTVSS
4 | 0.00109 | 0.578 |  |  | FJ1427 P035MP03H10 (VHH, soluble VHH in periplasmic extract; also called clone nr) VHH: QVQLVESGGGLVQAGGSLRLSCAASGRTFSTTEMGWFRQAPGKEREFVAAITWTGRGTMYAESVEGRFTISRENAKNMVYLQMNSLKPEDTAIYYCAAARRGRAAVRSEGGYDFWGQGTQVTVSS
5 |  |  |  | 0.134 | 35-MP07G01 (VHH, VHH in periplasmic extract; also called FJ1427_P035MP07G01; clone nr) VHH: QVQLQESGGGLVQGGGSLRLSCAASGGIFSSYAMGWFRQAPGKEREFVAAISRSGRSTNYADSVKGRFTISRDNAKSTVYLQMNSLKPEETAVYYCAAGRYYNSAYDPSPGDFGSWGHGTQVTVSS
6 |  |  | 0.00625 | 0.157 | 29-MP04H02 (VHH, VHH in periplasmic extract; also called FJ1427_P035MP04H02; clone nr) VHH: QVQLVESGGGLVQAGGSLRLACVASGLTFDNYYMGWFRQAPGKEREFVAGIIWNGDHTAYADSIKGRFTISRDNAKNTAYLRMNSLKPEDTAVYYCAATFWIERATTPDIGQYAYWGQGTQVTVSS
7 |  |  | 0.00331 | 0.896 | 36-MP07F02 (VHH, VHH in periplasmic extract; also called FJ1427_P035MP07F02; clone nr; 590) VHH: QVQLVESGGGLVQAGGSLRLSCAASGRTLSRYAMGWFRQAPGSEREFVAASSWGGDTFYADSVEGRFTFSRDNAKNAVYLQMNSLQPEDTAAYYCAAAPTSFPTTAYSSSNSYAYWGQGTQVTVSS
8 |  |  | 0.00327 | 0.873 | FJ1427_P035MP04B01 (VHH, VHH in periplasmic extract; also called clone nr; 290) VHH: EVQLVESGGGLVQAGASLRLSCAASGRTLSRYAMGWFRQAPGKEREFVAASSWGGDTYYADSVEGRFTFSRDNAKNAVYLQMNSLQPEDTAVYYCAGAPTSFATTAYSSSNSYAYWGQGTQVTVSS
9 | 0.0014 | 0.321 |  |  | FJ1427 P035MP03C12 (VHH, soluble VHH in periplasmic extract; also called clone nr) VHH: QVQLVESGGGLVQAGGSLRLSCAASGRAFSTYSMGWFRQTPGKEREFVAIISESGGIIDYGDSVKGRFTLSRDNAKNTVSLQMSSLQPEDTAVYYCAAARDWFARTAYQYDYWGQGTQVTVSA
10 | 0.000277 | 0.474 |  |  | FJ1427 P035MP03F11 (VHH, soluble VHH in periplasmic extract; also called clone nr) VHH: QVQLVESGGGLAQAGGSLRLSCAASGRTFSQDAKAWFRQAPGKEREFVAAITWSGRDTDYADSVKGRFTIARDNAKNTVYLQMDSLKPEDTAVYYCAVYPQGTIGPYFRSSNHYDYWGQGTQVTVSS
11 |  |  | 0.0091 | 0.863 | FJ1427_P035MP04G07 (VHH, VHH in periplasmic extract; also called clone nr) VHH: QVQLVESGGGWVQVGESLRLSCAPSGRTFVSGIMGWFRQAPGKEREFVARIILNNNSTRYTDSVKGRFTISRDSAKNTMYLQMNTLRPEDTAVYYCAARDRYGSGNSLSPSAYDYWGQGTQVTVSS
12 |  |  | 0.0196 | 1.9 | FJ1427_P035MP04A07 (VHH, VHH in periplasmic extract; also called clone nr) VHH: QLQLVESGGGWVQVGESLRLSCAPSGRTFVSGIMGWFRQAPGKEREFVARIILNNNSTRYIDSVKGRFTISRDSAKNTMYLQMDSLRPEDTAVYYCAARDRYGSGNSLSPSAYDYWGQGTQVTVSS
13 |  |  | 0.0187 | 1.94 | FJ1427_P035MP04B07 (VHH, VHH in periplasmic extract; also called clone nr) VHH: EVQLVESGGGWVQVGESLRLSCAPSGRTFVSGIMGWFRQTPGKEREFVARIILNNNSTRYTDSVKGRFTISRDSAKNTLYLQMNTLRPEDTAVYYCAARDRYGSGNSLSPSAYDYWGQGTQVTVSS
14 |  |  | 0.0208 | 1.45 | FJ1427_P035MP04B06 (VHH, VHH in periplasmic extract; also called clone nr; 330) VHH: QLQLVESGGGWVQVGESLRLSCVPSGRTFVSGIMGWFRQAPGKEREFVARIILNNNSTRYTDSVKGRFTISRDSAKNTMYLQMNTLRPEDTAVYYCAARDRYGSGNSLSPSAYDYWGQGTQVTVSS
15 |  |  | 0.0103 | 0.75 | FJ1427_P035MP04B11 (VHH, VHH in periplasmic extract; also called clone nr; 370) VHH: EVQLVESGGGWVQVGESLRLSCAPSGRTFVSGIMGWFRQAPGKEREFVARIILNNNSTRYIDSVKGRFTISRDSAKNTMYLQMDSLRPEDTAVYYCAARDRYGSGNSLSPSAYDYWGQGTQVTVSS
16 |  |  | 0.00732 | 1.68 | FJ1427_P035MP04C12 (VHH, VHH in periplasmic extract; also called clone nr) VHH: EVQLVESGGGWVQVGESLRLSCAPSGRTFVSGIMGWFRQAPGKEREFVARIILNNNSTRYIDSVKGRFTISRDSAKNTMYLQMDSLRPEDTAVYYCAARDRYGSGNSLSPSAYDYWGQGTQVTVSS
17 |  |  | 0.00844 | 1.49 | 30-MP04C03 (VHH, VHH in periplasmic extract; also called FJ1427_P035MP04C03; clone nr) VHH: EVQLVESGGGWVQDGGSLRLSCALSGRTFVRGIMGWFRQAPGKEREFVARIIWHINSTRYADSVKGRFTISRDSAKNTMYLQMDSLRPEDTAVYYCAARDRYGSGNSLSPSAYDYWGQGTQVTVSS
18 |  |  | 0.0204 | 1.85 | FJ1427_P035MP04A10 (VHH, VHH in periplasmic extract; also called clone nr) VHH: EVQLVESGGGWVQVGESLRLSCAPSGRTFVSGIMGWFRQAPGKEREFVARIILNNNSTRYTDSVKGRFTISRDSAKNTMYLQMNTLRPEDTAVYYCAARDRYGSGNSLSPSAYDYWGQGTQVTVSS
19 |  |  | 0.00712 | 1.87 | FJ1427_P035MP04A03 (VHH, VHH in periplasmic extract; also called clone nr) VHH: EVQLVESGGGWVQVGESLRLSCAPSGRTFVSGIMGWFRQTPGKEREFVARIILNNNSTRYTDSVKGRFTISRDSAKNTMYLQMNTLRPEDTAVYYCAARDRYGSGNSLSPSAYDYWGQGTQVTVSS
20 |  |  | 0.00775 | 1.81 | FJ1427_P035MP04C05 (VHH, VHH in periplasmic extract; also called clone nr) VHH: QVQLVESGGGWVQVGESLRLSCAPSGRTFVSGIMGWFRQAPGKEREFVARIILNNNSTRYTDSVKGRFTISRDSAKDTMYLQMNTLRPEDTAVYYCAARDRYGSGNSLSPSAYDYWGQGTQVTVSS
21 |  |  | 0.00749 | 1.47 | FJ1427_P035MP04B10 (VHH, VHH in periplasmic extract; also called clone nr) VHH: EVQLVESGGGWVQVGESLRLSCAPSGRTFVSGIMGWFRQAPGKEREFVARIILNNNSTRYIDSVKGRFTISRDSAKNTMYLQMDSLRPEDTAVYYCAARDRYGSGNSLSPSAYDYWGQGTQVTVSL
22 |  |  | 0.0205 | 1.33 | FJ1427_P035MP04C10 (VHH, VHH in periplasmic extract; also called clone nr) VHH: QVQLQESGGGWVQVGESLRLSCVPSGRTFVSGIMGWFRQAPGKEREFVARIILNNNSTRYTDSVKGRFTISRDSAKNTMYLQMNTLRPEDTAVYYCAARDRYGSGNSLSPSAYDYWGQGTQVTVSS
23 |  |  | 0.0285 | 1.97 | FJ1427_P035MP04B02 (VHH, VHH in periplasmic extract; also called clone nr) VHH: QVQLVESGGGWVQVGESLRLSCAPSGRTFVSGIMGWFRQTPGKEREFVARIILNNNSTRYTDSVKGRFTISRDSAKNTMYLQMNTLRPEDTAVYYCAARDRYGSGNSLSPSAYDYWGQGTQVTVSS
24 |  |  | 0.0207 | 1.93 | FJ1427_P035MP04D09 (VHH, VHH in periplasmic extract; also called clone nr) VHH: QVQLVESGGGWVQVGESLRLSCAPSGRTFVRGIMGWFRQAPGKEREFVARIILNSNSTRYIDSVKGRFTISRDSAKNTMYLQMNSLRPEDTAVYYCAARDRYGSGNSLSPSAYDYWGQGTQVTVSS
25 | 0.00102 | 0.118 |  |  | FJ1427 P035MP03D11 (VHH, soluble VHH in periplasmic extract; also called clone nr) VHH: QVQLVESGGGLVQAGGSLRLSCAASGRTFSTTDVGWFRQAPGKEREFVAAITWSSHSTLYADSVEGRFTVTRENAKNTVYLQMNSLKPEDTAVYYCAAVRRGWAVVRTEGAYDFWGQGTQVTVSA
